From publication PMC4499774

Biological target: GST-MED4 CsoS2 (pFC005) (Prochlorococcus marinus str. MED4)
Test: pull-down; E. coli co-expressing GST-MED4 CsoS2 (pFC005) with CsoS1 and CsoS1D (pFC119); Glutathione-Sepharose magnetic beads; elution by SDS-PAGE, densitometry and Western blot

Chain of GST-MED4 CsoS2 (pFC005) (Prochlorococcus marinus str. MED4) (Q7V2C8 whole entry): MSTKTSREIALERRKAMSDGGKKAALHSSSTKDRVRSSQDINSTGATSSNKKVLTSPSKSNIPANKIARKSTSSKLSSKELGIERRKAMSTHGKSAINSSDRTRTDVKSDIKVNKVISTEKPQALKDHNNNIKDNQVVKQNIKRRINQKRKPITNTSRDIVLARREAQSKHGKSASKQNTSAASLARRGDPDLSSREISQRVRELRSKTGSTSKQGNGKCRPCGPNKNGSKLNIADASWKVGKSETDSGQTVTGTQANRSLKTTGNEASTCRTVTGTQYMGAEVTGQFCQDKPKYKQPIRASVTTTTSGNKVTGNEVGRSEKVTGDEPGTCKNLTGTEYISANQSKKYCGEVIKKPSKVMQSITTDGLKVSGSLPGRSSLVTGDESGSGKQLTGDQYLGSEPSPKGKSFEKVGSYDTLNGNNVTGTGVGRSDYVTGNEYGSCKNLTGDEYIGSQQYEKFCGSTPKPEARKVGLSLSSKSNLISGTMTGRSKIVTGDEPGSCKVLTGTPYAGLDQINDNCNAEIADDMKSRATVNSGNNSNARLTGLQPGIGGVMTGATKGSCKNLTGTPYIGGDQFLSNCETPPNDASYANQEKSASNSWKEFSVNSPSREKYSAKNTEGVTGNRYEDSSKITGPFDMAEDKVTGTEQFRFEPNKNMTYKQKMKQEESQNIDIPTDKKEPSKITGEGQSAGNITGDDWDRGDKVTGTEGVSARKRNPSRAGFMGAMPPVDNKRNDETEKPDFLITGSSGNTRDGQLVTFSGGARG

molar ratio of CsoS1D to GST-CsoS2 in the elution fraction (densitometry): 5 molar ratio
B1: MED4 CsoS1D co-expressed with GST-MED4 CsoS2 (pFC119) (natural protein)
chain: MEPTSSLNRGDRKKGSSLVTGSEVQSQSNGASCFITTDSEKSLVSRQASQVEQIELRTYVFLDSLQPQLAAYMGTVSRGFLPIPGDSCLWMEVSPGMAVHRVTDIALKASNVRLGQMIVERAFGSLALYHKDQSTVLHSGDVVLDAIGSEVRKRTKPSTSWTEVICAITPDHAVLINRQNRSGSMIQSGMSMFILETEPAGYVLKAANEAEKSANITIIDVKAVGAFGRLTLAGKEGDVEEAAAAAIRAIDQISNY
